In the RNAGym collection of RNA variant scans (doi:10.7554/elife.80360):

B1: HDV Ribozyme (parent)
chain: GGCCGGCAUGGUCCCAGCCUCCUCGCUGGCGCCGGCUGGGCAACAUUCCGAGGGGACCGUCCCCUCGGUAAUGGCGAAUGGGACCCA

Variants of: B1
Test: self-cleavage, relative activity (ratio to wild type); higher = more cleavage; co-transcriptional

| Variant | self-cleavage |
| --- | --- |
| GGCCGGCUUGGUCCCAGCCUCCUCGCUGGCGCCGGCUGGGCAACAUUCCGAGGGGGCCGUCCCCUCGGUAAUGGCGAAUGGGACCCA [A8U A56G] | 0.957 |
| GGCCGGCUUGGUCCCAGCCUCCUCGCUGGCGCCGGCUGGGCAACAUUCCGAGGGGUCCGUCCCCUCGGUAAUGGCGAAUGGGACCCA [A8U A56U] | 0.705 |
| GGCCGGCGUGGUCCCAGCCUCCUCGCUGGCGCCGGCUGGGCAACAUUCCGAGGGGACCGUCCCCCCGGUAAUGGCGAAUGGGACCCA [A8G U65C] | 1.05 |
| GGCCGGCUUGGUUCCAGCCUCCUCGCUGGCGCCGGCUGGGCAACAUUCCGAGGGGACCGUCCCCUCGGUAAUGGCGAAUGGGACCCA [A8U C13U] | 0.302 |
| GGCCGGCUUGGUCCCAGCCUCCUCGCUGGCGCCGGCUGGGCAACAUUCCGAGGGGACCGUCCCCUCGGUAAUGGCGAAUGGGACCAA [A8U C86A] | 0.997 |
| GGCCGGCUUGGUCCCAGCCUCCUCGCUGGCGCCGGCUGGGCAACAUUCCGAGGGGACCGUCCCCUCGGUAAUGGCGCAUGGGACCCA [A8U A77C] | 0.0665 |
| GGCCGGCUUGGUCCCAGCCUCCUCGCUGGCGCCGGCUGGGCAACAUUCCGAGGGGACCGUCCCCUCGGUAAUGGCGUAUGGGACCCA [A8U A77U] | 0.0898 |
| GGCCGGCUUGGUCCCAGCCUCCUCGCUGGCGCCGGCUGGGCAACAUUCCGAGGGGACCGUCCCCUCGGUAAUGGCGGAUGGGACCCA [A8U A77G] | 0.779 |
| GGCCGGCUUGGUCCCAGCCUCCUCGCUGGCGCCGGCUGGGCAACAUUCCGAGGGGACCGUGCCCUCGGUAAUGGCGAAUGGGACCCA [A8U C61G] | 0.623 |
| GGCCGGCUUGGUCCCAGCCUCCUCGCUGGCGCCGGCUGGGCAACAUUCAGAGGGGACCGUCCCCUCGGUAAUGGCGAAUGGGACCCA [A8U C49A] | 1.13 |
| GGCCGGCUUGGUCCCAGCCUCCUCGCUGGCGCCGGCUGGGCAACAUUCUGAGGGGACCGUCCCCUCGGUAAUGGCGAAUGGGACCCA [A8U C49U] | 0.739 |
| GGCCGGCUUGGUCCCAGCCUCCUCGCUGGCGCCGGCUGGGCAACAUUCGGAGGGGACCGUCCCCUCGGUAAUGGCGAAUGGGACCCA [A8U C49G] | 0.76 |
| GGCCGGCUUGGUCCCAGCCUCCUCGCUGGCGCCGGCUGGGCAACAUUCCGAGGGGACCGUCCCCUCGGUCAUGGCGAAUGGGACCCA [A8U A70C] | 0.692 |
| GGCCGGCUUGGUCCCAGCCUCCUCGCUGGCGCCGGCUGGGCAACAUUCCGAGGGGACCGUCCCAUCGGUAAUGGCGAAUGGGACCCA [A8U C64A] | 0.538 |
| GGCCGGCUUGGUCCCAGCCUCCUCGCUGGCGCCGGCUGGGAAACAUUCCGAGGGGACCGUCCCCUCGGUAAUGGCGAAUGGGACCCA [A8U C41A] | 0.443 |
| GGCCGGCUUGGUCCCAGGCUCCUCGCUGGCGCCGGCUGGGCAACAUUCCGAGGGGACCGUCCCCUCGGUAAUGGCGAAUGGGACCCA [A8U C18G] | 0.172 |

| Variant | self-cleavage |
| --- | --- |
| GGCCGGCUUGGUCCCAGUCUCCUCGCUGGCGCCGGCUGGGCAACAUUCCGAGGGGACCGUCCCCUCGGUAAUGGCGAAUGGGACCCA [A8U C18U] | 0.631 |
| GGCCGGCUUGGUCCCAGACUCCUCGCUGGCGCCGGCUGGGCAACAUUCCGAGGGGACCGUCCCCUCGGUAAUGGCGAAUGGGACCCA [A8U C18A] | 0.0554 |
| GGCCGGCUUGGUCCCAGCCUCCUCGCUGGCGCCGGCUGGGCAACAUUGCGAGGGGACCGUCCCCUCGGUAAUGGCGAAUGGGACCCA [A8U C48G] | 1.25 |
| GGCCGGCUUGGUCCCAGCCUCCUCGCUGGCGCCGGCUGGGCAACAUUACGAGGGGACCGUCCCCUCGGUAAUGGCGAAUGGGACCCA [A8U C48A] | 0.875 |
| GGCCGGCUUGGUCCCAGCCUCCUCGCUGGCGCCGGCUGGGCAACAUUCCGAGGGGACCGUCCCCUCGGUAAUGGCGAAUGGGACCCA [A8U] | 0.863 |
| GGCCGGCUUGGUCCCAGCCUCCUCGCUGGCGCCGGCUGGGCAACAUUCCGAGGGGACCGUCCCCUCGGUAAUGGCGAAUGGGACCCU [A8U A87U] | 0.963 |
| GGCCGGCUUGGUCCCAGCCUCCUCGCUGGCGCCGGCUGGGCAACAUUCCGAGGGGACCGUCCACUCGGUAAUGGCGAAUGGGACCCA [A8U C63A] | 0.415 |
| GGCCGGCUUGGUCCCAGCCUCCUCGGUGGCGCCGGCUGGGCAACAUUCCGAGGGGACCGUCCCCUCGGUAAUGGCGAAUGGGACCCA [A8U C26G] | 1.03 |
| GGCCGGCUUGGUCCCAGCCUCCUCGAUGGCGCCGGCUGGGCAACAUUCCGAGGGGACCGUCCCCUCGGUAAUGGCGAAUGGGACCCA [A8U C26A] | 0.997 |
| GGCCGGCUUGGUCCCAGCCUCCUCGUUGGCGCCGGCUGGGCAACAUUCCGAGGGGACCGUCCCCUCGGUAAUGGCGAAUGGGACCCA [A8U C26U] | 0.86 |
| GGCCGGCUUGGUCCCAGCCUGCUCGCUGGCGCCGGCUGGGCAACAUUCCGAGGGGACCGUCCCCUCGGUAAUGGCGAAUGGGACCCA [A8U C21G] | 0.119 |
| GGCCGGCUUGGUCCCAGCCUUCUCGCUGGCGCCGGCUGGGCAACAUUCCGAGGGGACCGUCCCCUCGGUAAUGGCGAAUGGGACCCA [A8U C21U] | 0.147 |
| GGCCGGCUUGGUCCCAGCUUCCUCGCUGGCGCCGGCUGGGCAACAUUCCGAGGGGACCGUCCCCUCGGUAAUGGCGAAUGGGACCCA [A8U C19U] | 0.0308 |
| GGCCGGCUUGGUCCCAGCCUCCUCGCUGGAGCCGGCUGGGCAACAUUCCGAGGGGACCGUCCCCUCGGUAAUGGCGAAUGGGACCCA [A8U C30A] | 0.299 |
| GGCCGGCUUGGUCCCAGCCUCCUCGCUGGUGCCGGCUGGGCAACAUUCCGAGGGGACCGUCCCCUCGGUAAUGGCGAAUGGGACCCA [A8U C30U] | 0.529 |
| GGCCGGCUUGGUCCCAGCCUCCUCGCUGGCGCAGGCUGGGCAACAUUCCGAGGGGACCGUCCCCUCGGUAAUGGCGAAUGGGACCCA [A8U C33A] | 0.185 |
